What was measured:
Conditions in all cases: 25 mM Tris-HCl pH 7.5, 2 mM MgCl2, 100 mM KCl (FP, 21 C) or 100-400 mM KCl (BLI, IgG on Protein A, 25 C)
J2 IgG [1] = test: fluorescence polarization
J2 IgG [2] = test: BLI
J2 IgG HC A30P = test: BLI
J2 IgG HC Y50F = test: BLI
J2 IgG HC Y52F = test: BLI
J2 IgG HC Y54A = test: BLI
J2 IgG HC Y54F = test: BLI
J2 IgG LC Y31A = test: BLI
J2 IgG LC Y31F = test: BLI
J2 IgG LC Y38F = test: BLI
J2 IgG [3] = test: competition FP

Q: With “GGCAAGGGUAUCAUGGCGGACGACCGGGGUUCGAACCCCGGAUCCGGCCGUCCGCCGUGAUCCAUGCGGUUACCGCCCGCGUGUCGAACCCAGGUGUGCC [VA-I RNA]” as the sequence, how does the Kd (J2 IgG [1]) read?
A: 32 nM

Q: “GUUGUAAAGAAGGU / ACCUUCUUUACAAC [14-bp dsRNA]” was tested. Which Kd (J2 IgG [2]) did it give?
A: 2100 nM

Q: With “GUUGUAAAGAAGGUCAAUAU / AUAUUGACCUUCUUUACAAC [20-bp dsRNA]” as the sequence, how does the Kd (J2 IgG HC A30P) read?
A: 120 nM

Q: And the Kd (J2 IgG HC Y50F)?
A: 430 nM

Q: What about the Kd (J2 IgG HC Y52F) of the same sequence?
A: 220 nM

Q: And the Kd (J2 IgG HC Y54A)?
A: 300 nM

Q: And the Kd (J2 IgG HC Y54F)?
A: 710 nM

Q: And the Kd (J2 IgG LC Y31A)?
A: 940 nM

Q: And the Kd (J2 IgG LC Y31F)?
A: 360 nM

Q: And the Kd (J2 IgG LC Y38F)?
A: 150 nM

Q: What about the Kd (J2 IgG [2]) of the same sequence?
A: 120 nM

Q: For “GUUGUAAAGAAGGUCAAUAUUGUACCAAAC / GUUUGGUACAAUAUUGACCUUCUUUACAAC [30-bp dsRNA]”, which Kd (J2 IgG [2]) is on record?
A: 12 nM

Q: With “GUUGUAAAGAAGGUCAAUAUUGUACCAAACUUGAUGGAAA / UUUCCAUCAAGUUUGGUACAAUAUUGACCUUCUUUACAAC [40-bp dsRNA]” as the sequence, how does the Kd (J2 IgG [2]) read?
A: 80 nM

Q: Which results are given for “GUUGUAAAGAAGGUCAAUAUUGUACCAAACUUGAUGGAAAAGAACAACGU / ACGUUGUUCUUUUCCAUCAAGUUUGGUACAAUAUUGACCUUCUUUACAAC [50-bp dsRNA]”?
A: IC50 (J2 IgG [3]): 17 nM; Kd (J2 IgG [2]): 22 nM
